This is an account of results in US7166764B2, “Noc2 knockout mouse” (JCR Pharmaceuticals Co., Ltd., priority 2004, dated 2007).

Test [1] concerns pancreatic acinar cells. Description: Amylase secretion from isolated pancreatic acinar cells. In kind it is cell-based, mouse. Conditions: 30 pM CCK or 1 μM carbachol, n=12, means±s.e.m. The procedure: Pancreatic acini were prepared by collagenase digestion method. Amylase secretion experiments were performed according to Ohnishi et al. (28) with slight modifications. Briefly, isolated acini were suspended in an incubation buffer [consisting of 10 mM HEPES (pH 7.4), 127 mM NaCl, 4.7 mM KCl, 0.6 mM MgCl2, 1.3 mM CaCl2, 0.6 mM Na2HPO4, 2.0 mg/ml glucose, Eagle's MEM amino acids supplement, 2 mM L-glutamine, 1% BSA, 0.01% soybean trypsin inhibiter] as previously described (28) and preincubated at 37° C. for 30 minutes. After preincubation, the acini were centrifuged, resuspended in fresh incubation buffer, and incubated at 37° C. in the presence or absence of 30 pM CCK or 1 μM carbachol. Amylase released into the supernatant during incubation was quantified using Amylase B-test WAKO (WAKO PURE CHEMICAL INDUSTRIES). Amylase secretion was normalized as the amount released into the medium relative to the total amylase content in the pancreatic acinar cells (expressed as % amylase release).

In test [2] the test system is Rab3 isoforms. Kind of test: In vitro binding assay (cosedimentation, GST-Noc2 on glutathione beads). The conditions noted are these: lysates of COS-1 cells transfected with FLAG-tagged Rab3 isoforms; GDP-βS or GTP-γS. The procedure: Pancreatic islets were isolated by collagenase digestion method in a conventional manner (27). The pancreatic islets were cultured for 48 hours in RPMI1640 medium in the presence or absence of PTX (30 ng/ml). Batch incubation was performed as previously described (27). Insulin released into the medium was measured by radioimmunoassay (EIKEN CHEMICAL). Recombinant adenoviruses carrying either LacZ, Noc2 wt (wild-type), or Noc2AAA (mutant) cDNA were generated according to the manufacturer's instructions (STRATAGENE). For preparation of Noc2AAA, Trp-Phe-Tyr (residues 154–156) were replaced with three alanine residues as previously described (24). […] Lysate from COS-1 cells transfected with a Flag-tagged Rab3 isoforms was evaluated for binding to the GST-Noc2 wild-type (Noc2 wt) or the GST-Noc2 mutant (Noc2AAA) in the presence of GTP-γS.
Wild type Noc2 and mutant Noc2 (Noc2AAA), both full-length, were expressed as GST-fusion proteins and purified according to the manufacturer's instructions (AMERSHAM). […] Briefly, lysates from COS-1 cells transfected with FLAG-tagged Rab3 isoforms and Rab5 were assessed for binding to GST-Noc2 immobilized on glutathione beads in the presence of GDP-βS or GTP-γS. Rab3 isoforms and Rab5 and GST-Noc2 were detected by immunoblotting with anti-Flag antibody or immunoglobulin G-purified antibody against rat Noc2.

The target in test [3] is T1, Rab5A (Homo sapiens, UniProt P20339).
T1 construct: Full-length Rab3A, B, C and D and Rab5 cDNAs were subcloned into pFLAG-CMV-2 (SIGMA); expressed in transfected cells; host or cells: COS-1 cells (lysate)
T1 sequence (P20339 1-215): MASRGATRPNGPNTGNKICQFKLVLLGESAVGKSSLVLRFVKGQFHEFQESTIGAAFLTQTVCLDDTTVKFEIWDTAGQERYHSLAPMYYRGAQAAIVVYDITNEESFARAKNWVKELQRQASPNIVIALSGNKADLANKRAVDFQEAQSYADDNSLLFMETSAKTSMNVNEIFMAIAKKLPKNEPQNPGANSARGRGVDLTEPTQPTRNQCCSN
The description is as above. Conditions: lysates of COS-1 cells transfected with FLAG-tagged Rab5; GDP-βS or GTP-γS. As to the method: Wild type Noc2 and mutant Noc2 (Noc2AAA), both full-length, were expressed as GST-fusion proteins and purified according to the manufacturer's instructions (AMERSHAM). Full-length Rab3A, B, C and D and Rab5 cDNAs were subcloned into pFLAG-CMV-2 (SIGMA). For cosedimentation assays, COS-1 cells were transfected with each of the plasmids using LipofectAMINE (INVITROGEN). Following the transfection, the cells were sonicated in a buffer [20 mM HEPES, pH 7.4, 200 mM NaCl, 1 mM dithiothreitol, 5 mM MgCl2, 1 mM ATP and 0.26% (v/v) CHAPS]. In vitro binding assay was performed as previously described (15). Briefly, lysates from COS-1 cells transfected with FLAG-tagged Rab3 isoforms and Rab5 were assessed for binding to GST-Noc2 immobilized on glutathione beads in the presence of GDP-βS or GTP-γS. Rab3 isoforms and Rab5 and GST-Noc2 were detected by immunoblotting with anti-Flag antibody or immunoglobulin G-purified antibody against rat Noc2.

The mark [4] stands for this setting: pancreatic acini of Noc2−/− mice, basal level 4.9±0.5%.
The mark [5] stands for this setting: pancreatic acini of wild-type mice, basal level 5.6±0.9%.

Numbering of substitutions follows the chain as printed.

For the molecule `C[N+](C)(C)CCOC(N)=O` [carbachol, reference compound], the “% amylase released of total amylase content” value in test [1] (setting [4]) amounted to 6.2±0.5%; in test [1] (setting [5]) it was 15.6±0.8%.

B1: cholecystokinin (peptide, UniProt P06307 21-115, looked up)
Cholecystokinin: QPVPPADPAGSGLQRAEEAPRRQLRVSQRTDGESRAHLGALLARYIQQARKAPSGRMSIVKNLQNLDPSHRISDRDYMGWMDFGRRSAEEYEYPS
modifications: Cholecystokinin
As to B1, the “% amylase released of total amylase content” value in test [1] (setting [4]) is given as 5.8±0.5%; in test [1] (setting [5]), 13.0±0.7%.

B2: Noc2: full-length wild type Noc2 expressed as GST-fusion protein (protein)
chain: MADTIFSSGNDQWVCPNDRQLALRAKLQTGWSVHTYQTEKQRRSQCLSPGELEIILQVIQRAERLDILEQQRIGRLVERLETMQRNVMGNGLSQCLLCGEVLGFLGSSSVFCKDCRKKVCTKCGIEASPGQKRPLWLCKICSEQREVWKRSGAWFYKGLPKYILPLKTPGRADDPHFRPLPVEPTETQPPSAETSRVYTWARGRVVSSDSDSDSDLSSSSLEDRPLPSGVKGTKGDKPRGDSGASMESPRLGPARPPSHLSGSQSSLGSEAGTGATEPQGGTPAQPEPRVPGKRHTWATPRY
modifications: left off: a dimerising Fc or GST
notes: full-length wild type Noc2 expressed as GST-fusion protein
As to B2, the “binding to Rab3 isoforms (Rab3A–D)” value in test [2] is listed as “binds to all of the isoforms of Rab3 in a GTP-dependent manner”. Also, the “binding to Rab5A” value in test [3] is listed as “not to Rab5A”.

B3: Noc2AAA: mutant Noc2, Trp-Phe-Tyr (residues 154–156) replaced with three alanine residues, GST-fusion protein (protein)
chain: B2 chain with W154A, F155A, Y156A
In the case of B3, the “binding to Rab3 isoforms (Rab3A–D)” value in test [2] is “does not bind any isoform of Rab3”.
